Assay results from patent publication US20090041784A1 (Amgen, published 2009).
Positions count from the first letter of the chain named. Where two headings read alike, the source gives them in different places.

T1: cynomolgus glucagon receptor (cynomolgus (Macaca fascicularis), UniProt P47871 26-477 (human entry))
T1 chain: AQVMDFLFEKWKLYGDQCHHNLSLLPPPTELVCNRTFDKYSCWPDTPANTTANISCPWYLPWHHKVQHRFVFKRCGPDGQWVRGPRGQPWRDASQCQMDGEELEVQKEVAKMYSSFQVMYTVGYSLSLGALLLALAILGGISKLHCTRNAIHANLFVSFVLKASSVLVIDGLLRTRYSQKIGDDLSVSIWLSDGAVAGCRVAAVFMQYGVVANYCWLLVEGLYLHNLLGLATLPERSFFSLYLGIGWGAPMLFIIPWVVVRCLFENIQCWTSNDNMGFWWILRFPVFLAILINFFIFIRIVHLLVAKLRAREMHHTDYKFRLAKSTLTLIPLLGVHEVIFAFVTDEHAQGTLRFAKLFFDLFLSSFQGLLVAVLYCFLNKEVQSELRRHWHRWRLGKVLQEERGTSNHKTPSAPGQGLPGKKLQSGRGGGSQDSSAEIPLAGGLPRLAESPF

B1: antibody A-3 (antibody, V domains shown)
VH: QVQLVESGGGVVQPGRSLRLSCAASGFTFSSYGMHWVRQAPGKGLEWVAVMWYDGSNKDYVDSVKGRFTISRDNSKNTLYLQMNRLRAEDTAVYYCAREKDHYDILTGYNYYYGLDVWGQGTTVTVSS
VL: DIQMTQSPSSLSASVGDRVTITCRASQGIRNDLGWYQQKPGKAPKRLIYAASSLQSGVPSRFSGSGSGTEFTLTISSVQPEDFVTYYCLQHNSNPLTFGGGTKVEIK
notes: Human antibody from XenoMouse hybridoma; also called L3H3; antibody 3
B2: antibody A-4 (antibody, V domains shown)
VH: B1 VH with R85S
VL: B1 VL with V78L, V84A
notes: Human antibody from XenoMouse hybridoma (IgG2 or IgG4 strains), purified from conditioned medium; also called L4H4; antibody 4
B3: antibody A-21 (antibody, V domains shown)
VH: EVRLVESGGDLVQPGGSLRLSCAASGFTFSSYAMNWVRQAPGKGLEWISYIGSSSSAIYYGDSVKGRFTISRDNAKNSLYLQMNSLRDEDTAVYYCARYRSGWSPLFDFWGQGSLVTVSS
VL: DIQMTQSPSSVSASVGDRVTITCRASQGISSWLAWYQQKPGKAPKLLIYAASSLQSGVPSRFSGSGSGTDFTLTISSLQPEDFATYYCQQANSFPLTFGGGTKVEIK
notes: Human antibody from XenoMouse hybridoma; also called L21H21

Key:
[1] = target: T2, human glucagon receptor (human, UniProt P47871 26-477); assay: cell-based or functional assay
[2] = target: T1, cynomolgus glucagon receptor; assay: cell-based or functional assay
[3] = target: T3, mouse glucagon receptor (mouse (Mus musculus), UniProt Q61606 27-485); assay: cell-based or functional assay
[4] = target: T4, rat glucagon receptor (rat (Rattus norvegicus), UniProt P30082 27-485); assay: cell-based or functional assay
[5] = target: T2, human glucagon receptor; assay: Schild analysis of glucagon dose-response curves (cAMP HTRF) on CHO K1 cells expressing the receptor
[6] = target: T1, cynomolgus glucagon receptor; assay: as above
[7] = target: T3, mouse glucagon receptor; assay: as above
[8] = target: T4, rat glucagon receptor; assay: as above
[9] = target: T2, human glucagon receptor; assay: cell-based or functional assay; remark: listed apart in the source
[10] = target: T5, chimera-8 (amino acids 80-477 from human GCGR, remainder from human GLP-1 receptor) (human, UniProt P43220 24-83); assay: FMAT on cells expressing the chimeric receptor
T5 construct: Expressed on cells; not shown: in-frame C-terminal fluorescent protein, not identified

[11] = target: T6, chimera-10 (amino acids 80-142 from human GCGR, remainder from human GLP-1 receptor) (human, UniProt P43220 24-83; P43220 146-463); assay: FMAT on cells expressing the chimeric receptor
T6 construct: Expressed on cells; not shown: in-frame C-terminal fluorescent protein, not identified

[12] = target: T7, chimera-15 (amino acids 80-119 from human GCGR, remainder from human GLP-1 receptor) (human, UniProt P43220 24-83; P43220 125-463); assay: FMAT on cells expressing the chimeric receptor
T7 construct: Expressed on cells; not shown: in-frame C-terminal fluorescent protein, not identified

Row | Binder | IC50 of inhibition of glucagon-induced cAMP production (HTRF, CHO K1 cells expressing the receptor) [1] | IC50 of inhibition of glucagon-induced cAMP production (HTRF, CHO K1 cells expressing the receptor) [2] | IC50 of inhibition of glucagon-induced cAMP production (HTRF, CHO K1 cells expressing the receptor) [3] | IC50 of inhibition of glucagon-induced cAMP production (HTRF, CHO K1 cells expressing the receptor) [4] | Kb (dissociation constant of antibody binding by Schild analysis) [5] | Kb (dissociation constant of antibody binding by Schild analysis) [6] | Kb (dissociation constant of antibody binding by Schild analysis) [7] | Kb (dissociation constant of antibody binding by Schild analysis) [8] | IC50 of inhibition of glucagon-induced cAMP production (HTRF, CHO K1 cells expressing the receptor) [9] | binding result [10] | binding result [11] | binding result [12]
1 | B1 | 9.1 nM | 22.5 nM | 4.9 nM | 13.5 nM | 1.6 nM | 5 nM | 0.5 nM | 3.2 nM |  |  |  | 
2 | B2 | 18.1 nM | 52.1 nM | 10.1 nM | 17.2 nM | 1.76 nM | 5.7 nM | 0.88 nM |  |  |  |  | 
3 | B3 |  |  |  |  |  |  |  |  | 47.2 nM | no binding | no binding | no binding
